T1: rat calcitonin receptor (rat, UniProt P32214 25-516)
T1 construct: whole, on cells; In cell membranes prepared from transiently transfected BHK tk'ts 13 cells (Assay VIII); also called rCTR; rat calcitonin (a) receptor
T1 sequence (looked up): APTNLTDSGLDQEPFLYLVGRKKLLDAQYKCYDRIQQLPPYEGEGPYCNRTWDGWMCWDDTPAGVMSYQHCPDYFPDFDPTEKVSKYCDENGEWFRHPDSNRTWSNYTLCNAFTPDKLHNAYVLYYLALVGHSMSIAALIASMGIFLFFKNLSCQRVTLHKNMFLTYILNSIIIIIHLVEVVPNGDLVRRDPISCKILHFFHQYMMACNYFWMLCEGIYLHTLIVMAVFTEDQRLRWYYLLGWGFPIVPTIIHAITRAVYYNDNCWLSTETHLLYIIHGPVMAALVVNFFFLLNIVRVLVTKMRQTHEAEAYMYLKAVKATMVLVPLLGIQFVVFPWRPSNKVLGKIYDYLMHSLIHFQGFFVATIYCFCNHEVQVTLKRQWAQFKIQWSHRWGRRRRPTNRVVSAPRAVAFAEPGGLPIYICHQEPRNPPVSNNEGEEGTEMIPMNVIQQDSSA

T2: human calcitonin receptor (human, UniProt P30988 25-474)
T2 construct: whole, on cells; Cell membranes from the stably transfected cell line (Assay VII); also called hCTR; hCT
T2 sequence (looked up): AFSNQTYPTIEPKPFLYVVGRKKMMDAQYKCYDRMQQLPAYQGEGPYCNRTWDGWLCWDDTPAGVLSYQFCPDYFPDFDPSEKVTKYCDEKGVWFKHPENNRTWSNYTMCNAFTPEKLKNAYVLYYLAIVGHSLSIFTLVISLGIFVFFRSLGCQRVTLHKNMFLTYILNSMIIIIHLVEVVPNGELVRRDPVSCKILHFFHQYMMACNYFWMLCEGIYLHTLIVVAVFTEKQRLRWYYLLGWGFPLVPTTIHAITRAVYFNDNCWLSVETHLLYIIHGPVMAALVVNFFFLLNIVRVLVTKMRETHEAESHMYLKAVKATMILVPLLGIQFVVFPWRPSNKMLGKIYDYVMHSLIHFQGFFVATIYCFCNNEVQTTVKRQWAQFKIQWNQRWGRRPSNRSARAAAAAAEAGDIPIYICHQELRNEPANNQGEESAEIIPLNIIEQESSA

T3: rat amylin receptor (rat calcitonin receptor + rat RAMP 3) (rat, UniProt P32214 25-516; Q9JJ73 23-147)
T3 construct: whole, on cells; Receptor complex in cell membranes prepared from transiently transfected BHK tk'ts 13 cells (Assay VI); also called rAmylin-R; rat amylin 3(a) receptor
T3 sequence (looked up) 1: T1 sequence (looked up)
T3 sequence (looked up) 2: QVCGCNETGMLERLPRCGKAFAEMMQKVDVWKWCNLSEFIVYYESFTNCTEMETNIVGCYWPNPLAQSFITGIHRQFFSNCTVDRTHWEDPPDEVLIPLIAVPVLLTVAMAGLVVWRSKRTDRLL

B1: N^ε1-[(4S)-4-carboxy-4-(19-carboxynonadecanoylamino)butanoyl]-[Asp14,Arg17,Pro21,Pro27,Pro34,Arg35]-h-amylin (peptide)
peptide: K([γGlu-C20 diacid])CNTATCATQRLADFLRHSSPNFGAIPSSTNVGPRTY-NH2
modifications: disulfide 2-7; N-terminus assumed
SMILES: CC[C@H](C)[C@H](NC(=O)[C@H](C)NC(=O)CNC(=O)[C@H](Cc1ccccc1)NC(=O)[C@H](CC(N)=O)NC(=O)[C@@H]1CCCN1C(=O)[C@H](CO)NC(=O)[C@H](CO)NC(=O)[C@H](Cc1c[nH]cn1)NC(=O)[C@H](CCCNC(=N)N)NC(=O)[C@H](CC(C)C)NC(=O)[C@H](Cc1ccccc1)NC(=O)[C@H](CC(=O)O)NC(=O)[C@H](C)NC(=O)[C@H](CC(C)C)NC(=O)[C@H](CCCNC(=N)N)NC(=O)[C@H](CCC(N)=O)NC(=O)[C@@H](NC(=O)[C@H](C)NC(=O)[C@@H]1CSSC[C@H](NC(=O)[C@@H](N)CCCCNC(=O)CC[C@H](NC(=O)CCCCCCCCCCCCCCCCCCC(=O)O)C(=O)O)C(=O)N[C@@H](CC(N)=O)C(=O)N[C@@H]([C@@H](C)O)C(=O)N[C@@H](C)C(=O)N[C@@H]([C@@H](C)O)C(=O)N1)[C@@H](C)O)C(=O)N1CCC[C@H]1C(=O)N[C@@H](CO)C(=O)N[C@@H](CO)C(=O)N[C@H](C(=O)N[C@@H](CC(N)=O)C(=O)N[C@H](C(=O)NCC(=O)N1CCC[C@H]1C(=O)N[C@@H](CCCNC(=N)N)C(=O)N[C@H](C(=O)N[C@@H](Cc1ccc(O)cc1)C(N)=O)[C@@H](C)O)C(C)C)[C@@H](C)O
B2: N^ε1-[(4S)-4-carboxy-4-(19-carboxynonadecanoylamino)butanoyl]-[Asp14,Arg17,Pro21,Pro27,Pro34,Glu35]-h-amylin (peptide)
peptide: K([γGlu-C20 diacid])CNTATCATQRLADFLRHSSPNFGAIPSSTNVGPETY-NH2
modifications: disulfide 2-7; N-terminus assumed
SMILES: CC[C@H](C)[C@H](NC(=O)[C@H](C)NC(=O)CNC(=O)[C@H](Cc1ccccc1)NC(=O)[C@H](CC(N)=O)NC(=O)[C@@H]1CCCN1C(=O)[C@H](CO)NC(=O)[C@H](CO)NC(=O)[C@H](Cc1c[nH]cn1)NC(=O)[C@H](CCCNC(=N)N)NC(=O)[C@H](CC(C)C)NC(=O)[C@H](Cc1ccccc1)NC(=O)[C@H](CC(=O)O)NC(=O)[C@H](C)NC(=O)[C@H](CC(C)C)NC(=O)[C@H](CCCNC(=N)N)NC(=O)[C@H](CCC(N)=O)NC(=O)[C@@H](NC(=O)[C@H](C)NC(=O)[C@@H]1CSSC[C@H](NC(=O)[C@@H](N)CCCCNC(=O)CC[C@H](NC(=O)CCCCCCCCCCCCCCCCCCC(=O)O)C(=O)O)C(=O)N[C@@H](CC(N)=O)C(=O)N[C@@H]([C@@H](C)O)C(=O)N[C@@H](C)C(=O)N[C@@H]([C@@H](C)O)C(=O)N1)[C@@H](C)O)C(=O)N1CCC[C@H]1C(=O)N[C@@H](CO)C(=O)N[C@@H](CO)C(=O)N[C@H](C(=O)N[C@@H](CC(N)=O)C(=O)N[C@H](C(=O)NCC(=O)N1CCC[C@H]1C(=O)N[C@@H](CCC(=O)O)C(=O)N[C@H](C(=O)N[C@@H](Cc1ccc(O)cc1)C(N)=O)[C@@H](C)O)C(C)C)[C@@H](C)O
B3: N^ε1-[(4S)-4-carboxy-4-[[(4S)-4-carboxy-4-(19-carboxynonadecanoylamino)butanoyl]amino]butanoyl]-[Asp14,Arg17,Pro21,Pro27,Pro34,Glu35]-h-amylin (peptide)
peptide: K([γGlu-γGlu-C20 diacid])CNTATCATQRLADFLRHSSPNFGAIPSSTNVGPETY-NH2
modifications: disulfide 2-7; N-terminus assumed
SMILES: CC[C@H](C)[C@H](NC(=O)[C@H](C)NC(=O)CNC(=O)[C@H](Cc1ccccc1)NC(=O)[C@H](CC(N)=O)NC(=O)[C@@H]1CCCN1C(=O)[C@H](CO)NC(=O)[C@H](CO)NC(=O)[C@H](Cc1c[nH]cn1)NC(=O)[C@H](CCCNC(=N)N)NC(=O)[C@H](CC(C)C)NC(=O)[C@H](Cc1ccccc1)NC(=O)[C@H](CC(=O)O)NC(=O)[C@H](C)NC(=O)[C@H](CC(C)C)NC(=O)[C@H](CCCNC(=N)N)NC(=O)[C@H](CCC(N)=O)NC(=O)[C@@H](NC(=O)[C@H](C)NC(=O)[C@@H]1CSSC[C@H](NC(=O)[C@@H](N)CCCCNC(=O)CC[C@H](NC(=O)CC[C@H](NC(=O)CCCCCCCCCCCCCCCCCCC(=O)O)C(=O)O)C(=O)O)C(=O)N[C@@H](CC(N)=O)C(=O)N[C@@H]([C@@H](C)O)C(=O)N[C@@H](C)C(=O)N[C@@H]([C@@H](C)O)C(=O)N1)[C@@H](C)O)C(=O)N1CCC[C@H]1C(=O)N[C@@H](CO)C(=O)N[C@@H](CO)C(=O)N[C@H](C(=O)N[C@@H](CC(N)=O)C(=O)N[C@H](C(=O)NCC(=O)N1CCC[C@H]1C(=O)N[C@@H](CCC(=O)O)C(=O)N[C@H](C(=O)N[C@@H](Cc1ccc(O)cc1)C(N)=O)[C@@H](C)O)C(C)C)[C@@H](C)O
B4: N^ε1-[(4S)-4-carboxy-4-[[(4S)-4-carboxy-4-(19-carboxynonadecanoylamino)butanoyl]amino]butanoyl]-[Asp14,Arg17,Pro21,Pro27,Pro34,Arg35]-h-amylin (peptide)
peptide: K([γGlu-γGlu-C20 diacid])CNTATCATQRLADFLRHSSPNFGAIPSSTNVGPRTY-NH2
modifications: disulfide 2-7
notes: also called compound 130

Numbered stars: 1 amine (or outer) side, 2 acyl side, 3 side chain; on linkers, the order of the positions; unused ones are H or OH. Bridge positions count the residues as written; N and C are the ends. Side chains are listed from the residue outwards. Ends that are not written are not given here. * marks the point of attachment. C20 diacid = O=C(O)CCCCCCCCCCCCCCCCCCC(=O)*; γGlu = O=C(O)[C@H](CCC(=O)[*:2])N[*:1]

What is called IC50 is the midpoint of a concentration-inhibition curve.

For one assay, the target named is T1, rat calcitonin receptor. In words: ratio of binding IC50s: rat calcitonin receptor (Assay VIII) over rat amylin receptor (Assay VI).
Regarding B1, the “Ratio rCT/rAmylin binding” value is 116.

Consider B2, for which the “Ratio rCT/rAmylin binding” value worked out at 62.

B3: the “Ratio rCT/rAmylin binding” value worked out at 98.5.

Take B4: the “Ratio rCT/rAmylin binding” value worked out at 240.

For another assay, the target named is T2, human calcitonin receptor. In words: ratio of binding IC50s: human calcitonin receptor (Assay VII) over human amylin receptor (Assay V). As for the experimental part: The resulting pellet was resuspended, homogenized and centrifuged (20.000 rpm, 15 min) in a buffer containing 20 mM Na-HEPES and 0.1 mM EDTA (pH 7.4, buffer 2). The resulting pellet was resuspended in buffer 2 and protein concentration was measured (BCA protein Assay, Pierce). The homogenate was kept cold during the whole procedure. The membranes were kept at −80° C. until use. The assay was performed in a 384 well Optiplate (PerkinElmer) in a total volume of 40 ul. Membranes were mixed with SPA beads. Final concentration of membranes 35 ng/μL final and SPA beads was 0.05 mg/well. Test-compounds were dissolved in DMSO and further diluted in assay buffer (50 mM Hepes, pH 7.4, 1 mM CaCl2, 5 mM MgCl₂, 0.1% OA and 0.02% Tween20). […] The final mixture was incubated with shaking at 400 rpm for 120 min at 25° C. prior to centrifugation (1500 rpm, 10 min). Samples were analyzed on TopCounter™ (Packard). The IC₅₀ was calculated using (one site binding competition analysis) GraphPad Prism5 as a measure of receptor affinity.
Membranes were prepared in the following way; the cells were rinsed with PBS and incubated with Versene for approximately 5 min before harvesting. The cells were flushed with PBS and the cell-suspension was centrifuged for 5 min at 1000 rpm. Cells were homogenized (Ultrathurrax) in a buffer containing 20 mM Na-HEPES and 10 mM EDTA (pH 7.4) and centrifuged at 20.000 rpm for 15 min. The resulting pellet was resuspended, homogenized and centrifuged (20.000 rpm, 15 min) in a buffer containing 20 mM Na-HEPES and 0.1 mM EDTA (pH 7.4, buffer 2). The resulting pellet was resuspended in buffer 2 and protein concentration was measured (BCA protein Assay, Pierce). The homogenate was kept cold during the whole procedure. The membranes were kept at −80° C. until use. Assay was performed in a 384 well Optiplate (PerkinElmer) in a total volume of 40 ul. Membranes were mixed with SPA beads.
Consider B1, for which the “Ratio hCT/hAmylin binding” value worked out at 151.

In the case of B2, the “Ratio hCT/hAmylin binding” value worked out at 16.7.

For B3, the “Ratio hCT/hAmylin binding” value is 49.8.

As for B4, the “Ratio hCT/hAmylin binding” value came to 280.

The next assay has as its target T1, rat calcitonin receptor. In words: SPA competition binding, displacement of 125I-Calcitonin from membranes of BHK tk'ts 13 cells with rat calcitonin receptor (Assay VIII). A general note: Displacement assays read how much labelled ligand stays bound in the presence of the test substance.
On to B1, for which the IC50 stood at 58.5 nM.

For B2, the IC50 came out at 18.6 nM.

As to B3, the IC50 turned out to be 31.9 nM.

For the molecule B4, the IC50 stood at 223 nM.

The target of another assay is T3, rat amylin receptor (rat calcitonin …). The assay can be described thus: SPA competition binding, displacement of 125I-rat amylin from membranes of BHK tk'ts 13 cells with rat calcitonin receptor + rat RAMP 3 (Assay VI). How it is done: The binding assay was performed using scintillation proximity assay (SPA) beads (RPNQ0001) from PerkinElmer and cell membranes from the Amylin 3(a)/CRE-luc cells (as described in Assay (II)) were used. Membranes were prepared in the following way; the cells were rinsed with PBS and incubated with Versene for approximately 5 min before harvesting. The cells were flushed with PBS and the cell-suspension was centrifuged for 5 min at 1000 rpm. Cells were homogenized (ultrathurrax) in a buffer containing 20 mM Na-HEPES and 10 mM EDTA (pH 7.4) and centrifuged at 20.000 rpm for 15 min. The resulting pellet was resuspended, homogenized and centrifuged (20.000 rpm, 15 min) in a buffer containing 20 mM Na-HEPES and 0.1 mM EDTA (pH 7.4, buffer 2). The resulting pellet was resuspended in buffer 2 and protein concentration was measured (BCA protein Assay, Pierce). The homogenate was kept cold during the whole procedure. The membranes were kept at −80° C. until use. The assay was performed in a 384 well Optiplate (PerkinElmer) in a total volume of 40 ul. Membranes were mixed with SPA beads. Final concentration of membranes 35 ng/μL final and SPA beads was 0.05 mg/well. Test-compounds were dissolved in DMSO and further diluted in assay buffer (50 mM Hepes, pH 7.4, 1 mM CaCl2, 5 mM MgCl₂, 0.1% OA and 0.02% Tween20). […] The final mixture was incubated with shaking at 400 rpm for 120 min at 25° C. prior to centrifugation (1500 rpm, 10 min). Samples were analyzed on TopCounter™ (Packard). The IC₅₀ was calculated using (one site binding competition analysis) GraphPad Prism5 as a measure of receptor affinity.
Cells were grown in DMEM with 10% FBS and 1% Pen/Strep. Approximately 48 hours after transfection, the cells were harvested and membranes were prepared.
Consider B1, for which the IC50 turned out to be 0.504 nM.

For the molecule B2, the IC50 came out at 0.3 nM.

For B3, the IC50 was 0.324 nM.

As for B4, the IC50 turned out to be 0.93 nM.

The record behind these values is patent US20140087995A1 (published 2014).
